PMC5668364, “Structure and functional dynamics of the mitochondrial Fe/S cluster synthesis complex” (Nature Communications, 2017)
Where two headings read alike, the source gives them in different places.

B2: Chaetomium thermophilum CtNfs1 (enzyme)
chain: MANLAPSVLRQASRLATRSSSSTSSLFAAAPRRAATLLSRRAAIAPATHAHPSRRASRSYVTDTKADNAQAQTEAAVRLDSQELEKAEKSVPSFEAQNGSTTHVSPMADILKGATRMGEGQRPIYLDMQATTPVDPRVLDAMLPYYVGIFGNPHSRTHAYGWETERAVEKAREHIAALIGADPKEIIFTSGATESNNMSIKGVARFFGRTGKKRHIITSQTEHKCVLDSCRHLQDEGYEVTYLPVNNKGLINLDELRDAIRPDTALVSIMAVNNEIGVIQPIAEIGKICREKKVFFHTDGAQAVGKIPIDVNAMNIDLMSISSHKIYGPKGIGACYVRRRPRVRIEPIISGGGQERGLRSGTLAPALVVGFGEACRIAKEELEYDLKHVKRLSERLLKGVLSIECTHQNGDPENGYPGCVNVSFAYVEGESLLMALNDVALSSGSACTSASLEPSYVLRALGNSDENAHSSIRFGIGRFTTEAEIDYVVKAVQDRVGFLRELSPLWELVQEGVDLNTIEWTQH

Tests used:
[1] = target: B2; test: SAXS; complexes of NFS1 with ISCU, FDX2 (reduced with dithionite) and/or frataxin mixed in 1:1, 1:1:1 ratios in buffer S1 in an anaerobic chamber, after size exclusion chromatography; rigid body modelling
[2] = target: human NFS1 of the NFS1-ISD11(-His10) complex for biochemistry and SAXS (human); test: SAXS; (NIA)2 complexes incubated with cysteine (buffer S1 with 5 mM Cys: 35 mM Tris-HCl pH 7.4, 150 mM NaCl), after size exclusion chromatography
[3] = target: T1, human ISD11-His10 (human, UniProt Q9HD34 1-91); test: affinity purification with mass spectrometry; NFS1-ISD11(-His10) purified by Ni-Sepharose and gel filtration from E. coli grown in TB (energy-rich) medium; Orbitrap mass spectrometry of the trypsin-digested purified solution; conditions: partners not purified
T1 construct: human ISD11 (LYRM4); source: E. coli, co-expressed with NFS1, purified (Ni-Sepharose, gel filtration)

[4] = target: T2, human ISD11, full length, no tag (human, UniProt Q9HD34 1-91); test: crystal structure; (NIA)2 complex, 2.75 Å, space group R32; crystals from 100 mM MES pH 6.5, 0.3 M ammonium acetate, 20 mM calcium acetate, 20 mM CaCl2, 19% isopropanol, 12 °C; conditions: both partners purified
T2 construct: human ISD11 (LYRM4), full length, plasmid pZM4; also called LYRM4; I of (NIA)2 and (NIAU)2; source: E. coli One Shot BL21 Star (DE3), co-expressed with NFS1, co-purified (Ni-NTA)

[5] = target: the molecule itself; test: SAXS; (NIA)2 complexes incubated with cysteine (buffer S1 with 5 mM Cys: 35 mM Tris-HCl pH 7.4, 150 mM NaCl), after size exclusion chromatography

T2 sequence (Q9HD34 whole entry): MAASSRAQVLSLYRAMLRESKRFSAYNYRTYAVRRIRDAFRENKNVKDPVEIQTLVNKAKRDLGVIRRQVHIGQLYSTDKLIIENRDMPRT
T1 sequence (Q9HD34 whole entry): as above

For “Chaetomium thermophilum CtFdx2 (reduced ferredoxin) (natural protein)”, the stoichiometry N [1] was 1.

In the case of “human NFS1 of the NFS1-ISD11(-His10) complex for biochemistry and SAXS (enzyme)”, the stoichiometry N [2] is reported as 2.

B1: E. coli acyl carrier protein (ACP) (natural protein, UniProt P0A6A8 1-78, looked up)
chain: MSTIEERVKKIIGEQLGVKQEEVTNNASFVEDLGADSLDTVELVMALEEEFDTEIPDEEAEKITTVQAAIDYINGHQA
modifications: Ser36-linked phosphopantetheine with attached fatty acyl chain (12 carbons modelled; 14 carbons by mass spectrometry of dissolved crystals)
notes: E. coli acyl carrier protein; the acyl chain length is said to depend on the growth medium; also called E. coli ACP; A of (NIA)2; source: endogenous E. coli protein, co-purified with NFS1-ISD11 expressed in E. coli
B1: binds [3]; binds [4].

For B2, the “stoichiometry N” value [5] was 2.

B3: Chaetomium thermophilum CtIsu1-His6 (natural protein)
chain: MFSKTARAVSSRALASPLWSTAIPVTRPLSCQLAWPQTRQYHEKVLDHYSRPRNVGSLDKTDKSVGEGLVGAPACGDVMRLHIKVDPETKVISDVRFKTFGCGSAIASSSYLTELVRGMTLEQAAQVKNTQIAKELCLPPVKLHCSMLAEDAIKSAINNYYKKNPEARPTNLAGRGNNKLETASQSTQ
B3 was tested, and the “stoichiometry N” value ([1]; both partners purified) was 1.
